Experiment [1] addresses T1, full-length beta-Catenin (Uniprot ID P35222) (Homo sapiens (Human), UniProt P35222 2-781).
T1 construct: No tag is stated for the FP assay; also called bCat; B-Catenin
T1 sequence: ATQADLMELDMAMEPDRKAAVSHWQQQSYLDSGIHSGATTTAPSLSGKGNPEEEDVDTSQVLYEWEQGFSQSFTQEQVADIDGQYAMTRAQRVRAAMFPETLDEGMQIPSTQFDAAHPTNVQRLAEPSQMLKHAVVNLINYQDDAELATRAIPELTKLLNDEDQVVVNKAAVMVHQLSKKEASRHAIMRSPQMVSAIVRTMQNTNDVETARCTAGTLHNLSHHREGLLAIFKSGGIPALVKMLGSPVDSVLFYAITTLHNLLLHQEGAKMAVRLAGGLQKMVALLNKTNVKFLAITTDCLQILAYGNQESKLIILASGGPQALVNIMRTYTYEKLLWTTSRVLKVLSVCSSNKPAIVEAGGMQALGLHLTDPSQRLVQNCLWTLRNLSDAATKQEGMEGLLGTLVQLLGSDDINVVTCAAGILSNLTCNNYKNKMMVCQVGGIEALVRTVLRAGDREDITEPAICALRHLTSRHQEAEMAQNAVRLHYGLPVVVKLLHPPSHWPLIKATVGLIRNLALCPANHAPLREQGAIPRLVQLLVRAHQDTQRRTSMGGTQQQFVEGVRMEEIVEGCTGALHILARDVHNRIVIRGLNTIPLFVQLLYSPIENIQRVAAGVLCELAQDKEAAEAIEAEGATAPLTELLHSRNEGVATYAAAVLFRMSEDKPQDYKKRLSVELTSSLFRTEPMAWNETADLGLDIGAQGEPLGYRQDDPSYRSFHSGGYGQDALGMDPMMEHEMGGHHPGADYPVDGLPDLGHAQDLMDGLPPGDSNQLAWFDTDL
Briefly: fluorescence polarization competition; full-length beta-catenin with 5FAM-TCF4(10-53) probe as competitor. As to the method: The plate was incubated protected from light for 60 minutes at 20° C. prior to read. Reads were performed on a CLARIOstar plate reader (BMG Labtech) in duplicate, and data were fitted to a 1:1 binding model with hill slope using an in-house script. All provided concentrations are final concentrations.
For orientation: Fluorescence polarisation rises when a labelled molecule tumbles more slowly, as on binding a larger partner.

Experiment [2] concerns the target T2, B-cat-Halo (UniProt P35222 2-781).
T2 sequence (looked up): T1 sequence
Briefly: cell-based or functional assay.

For experiment [3], the target named is T3, B-cat-Halo (UniProt P35222 1-781).
T3 sequence (looked up): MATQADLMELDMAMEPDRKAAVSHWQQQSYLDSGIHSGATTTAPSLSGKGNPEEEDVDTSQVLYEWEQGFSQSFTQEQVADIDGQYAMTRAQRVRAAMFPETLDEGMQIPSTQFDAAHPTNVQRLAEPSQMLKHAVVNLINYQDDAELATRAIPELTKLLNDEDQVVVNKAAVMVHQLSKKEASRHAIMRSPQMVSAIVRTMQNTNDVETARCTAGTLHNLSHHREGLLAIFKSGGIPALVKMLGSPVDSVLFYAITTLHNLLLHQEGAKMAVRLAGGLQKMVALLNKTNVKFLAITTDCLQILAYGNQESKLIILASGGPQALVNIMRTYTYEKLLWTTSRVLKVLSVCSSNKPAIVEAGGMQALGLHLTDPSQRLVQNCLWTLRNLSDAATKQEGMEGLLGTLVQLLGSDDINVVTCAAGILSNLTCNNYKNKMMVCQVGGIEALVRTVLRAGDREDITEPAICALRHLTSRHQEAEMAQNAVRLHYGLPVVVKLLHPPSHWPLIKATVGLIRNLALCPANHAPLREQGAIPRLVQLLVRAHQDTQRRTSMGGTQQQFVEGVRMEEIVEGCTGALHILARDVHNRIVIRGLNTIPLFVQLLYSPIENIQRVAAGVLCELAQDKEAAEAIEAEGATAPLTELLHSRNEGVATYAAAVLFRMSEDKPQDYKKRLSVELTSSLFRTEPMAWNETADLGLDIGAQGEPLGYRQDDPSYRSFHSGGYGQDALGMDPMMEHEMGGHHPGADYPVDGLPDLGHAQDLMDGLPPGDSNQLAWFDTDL
In words: cell-based or functional assay.

Starred links: 1 amine or outer side, 2 acyl side, 3 side chain; linkers in the order of their positions; H or OH if unused. Positions of bridges follow the written chain, without caps; N, C: chain ends. Non-standard residues stand in square brackets, D forms with d. Primed or numbered codes have the meaning given here. PyrS2″ = (S)-3-amino-1-((pent-4-en-1-yloxy)carbonyl)pyrrolidine-3-carboxylic acid (stapling residue), C=CCCCOC(=O)N1CC[C@@](N[*:1])(C(=O)[*:2])C1; B5(4) = 2,2-bis(4-pentenyl)glycine = 2-amino-2-(pent-4-en-1-yl)hept-6-enoic acid (stitching residue), C=CCCCC(CCCC=C)(N[*:1])C(=O)[*:2]; B5(5) = 2,2-bis(4-pentenyl)glycine, 2-amino-2-(pent-4-en-1-yl)hept-6-enoic acid (stitching residue), C=CCCCC(CCCC=C)(N[*:1])C(=O)[*:2]; B5(6) = 2-amino-2-(pent-4-en-1-yl)hept-6-enoic acid (bis(4-pentenyl)glycine), stitching residue, C=CCCCC(CCCC=C)(N[*:1])C(=O)[*:2]; TfeGA = (S)-2-amino-3-((carboxymethyl)(2,2,2-trifluoroethyl)amino)propanoic acid, O=C([C@H](CN(CC(=O)[*:3])CC(F)(F)F)N[*:1])[*:2]; PyrS2 = (S)-3-amino-1-((pent-4-en-1-yloxy)carbonyl)pyrrolidine-3-carboxylic acid, C=CCCCOC(=O)N1CC[C@@](N[*:1])(C(=O)[*:2])C1; B5(19) = 2-amino-2-(pent-4-en-1-yl)hept-6-enoic acid (bis(4-pentenyl)glycine), C=CCCCC(CCCC=C)(N[*:1])C(=O)[*:2]; B5(3) = 2,2-bis(4-pentenyl)glycine (stitching residue), C=CCCCC(CCCC=C)(N[*:1])C(=O)[*:2]; AcLys″ = N6-acetyl-lysine, CC(=O)NCCCC[C@H](N[*:1])C(=O)[*:2]; hLeu(5-Me) = CC(C)(C)CC[C@H](N)C(=O)O; Bta = N[C@@H](Cc1csc2ccccc12)C(=O)O; hTyr = N[C@@H](CCc1ccc(O)cc1)C(=O)O; αAllylPro = C=CC[C@@]1(C(=O)O)CCCN1; tBuAla = CC(C)(C)C[C@H](N)C(=O)O; 3Thi = N[C@@H](Cc1ccsc1)C(=O)O; Cha = N[C@@H](CC1CCCCC1)C(=O)O; S8 = C=CCCCCCC[C@](C)(N)C(=O)O; PyrS2(4) = not defined here; TfeGA″ = not defined here; hSer = N[C@@H](CCO)C(=O)O; Nle = CCCC[C@H](N)C(=O)O

B1: I-478 (peptide)
peptide: XDAXDEAAFNXFXH
modifications: not fully specified; Ac-PL3-Asp-Ala-B5-Asp-Glu-Ala-Ala-Phe-Asn-S8-Phe-BztA-1MeH-NH2; N-terminal acetyl, C-terminal amide; PL3(1)-B5(4) and B5(4)-S8(11) stapled by olefin metathesis; BztA at 13; 1MeH at 14
notes: Stapled peptide; this is the earlier eluting HPLC peak (staple isomer composition)
For orientation: IC50 means the concentration that gives 50% inhibition. A higher IC50 goes with a need for much substance. Regarding B1, the IC50 in experiment [1] stood at 0.071 µM.

B2: I-479 (peptide)
peptide: XDAXDEAAFNXFXH
modifications: not fully specified; Ac-PL3-Asp-Ala-B5-Asp-Glu-Ala-Ala-Phe-Asn-S8-Phe-BztA-1MeH-NH2; N-terminal acetyl, C-terminal amide; PL3(1)-B5(4) and B5(4)-S8(11) stapled by olefin metathesis; BztA at 13; 1MeH at 14
notes: Stapled peptide; this is the later eluting HPLC peak (staple isomer composition)
Regarding B2, the IC50 in experiment [1] stood at 0.027 µM.

B3: I-475 (peptide)
peptide: XDIXDEAAFNXFXQ
modifications: not fully specified; Ac-PL3-Asp-aIle-B5-Asp-Glu-Ala-Ala-Phe-Asn-S8-Phe-BztA-Gln-NH2; N-terminal acetyl, C-terminal amide; PL3(1)-B5(4) and B5(4)-S8(11) stapled by olefin metathesis; aIle at 3; BztA at 13
notes: as for B1
With B3, the IC50 in experiment [1] is 0.102 µM.

B4: I-495 (peptide)
peptide: XDIXDEAAFQXFXN
modifications: not fully specified; Ac-PL3-Asp-Ile-B5-Asp-Glu-Ala-Ala-Phe-Gln-S8-Phe-BztA-Asn-NH2; N-terminal acetyl, C-terminal amide; PL3(1)-B5(4) and B5(4)-S8(11) stapled by olefin metathesis; BztA at 13
notes: Stapled (stitched) peptide composition
As to B4, the IC50 in experiment [1] came out at 0.181 µM.

B5: I-471 (peptide)
peptide: Ac-[αAllylPro]DI[B5(6)]DEAAFQ[S8]F[Bta]H-NH2
modifications: staple 1-4, 4-11
notes: as for B4
B5 returned an IC50 in experiment [1] of 0.052 µM.

B6: I-476 (peptide)
peptide: XDIXDEAAFNXFXQ
modifications: not fully specified; Ac-PL3-Asp-aIle-B5-Asp-Glu-Ala-Ala-Phe-Asn-S8-Phe-BztA-Gln-NH2; N-terminal acetyl, C-terminal amide; PL3(1)-B5(4) and B5(4)-S8(11) stapled by olefin metathesis; aIle at 3; BztA at 13
notes: as for B2
Turning to B6, the IC50 in experiment [1] is 0.048 µM.

B7: I-1776 (peptide)
peptide: Ac-[αAllylPro]D[tBuAla][B5(19)]D[TfeGA]AAF[Nle][PyrS2][3Thi][Bta]Q-NH2
modifications: staple 1-4, 4-11
In the case of B7, in the experiment with B-cat-Halo [2], the “NanoBRET Abs IC50” value amounted to 10.5 µM.

B8: I-1774 (peptide)
peptide: Ac-[αAllylPro]D[tBuAla][B5(5)]D[TfeGA″]AAF[Cha][PyrS2(4)][3Thi][Bta]Q-NH2
modifications: staple 1-4, 4-11; not fully specified; reading uncertain
B8: the “NanoBRET Abs IC50” value in the experiment with B-cat-Halo [2] stood at 8.9 µM.

B9: I-1719 (peptide)
peptide: Ac-[αAllylPro]D[tBuAla][B5(4)]D[TfeGA]AAFL[PyrS2″][3Thi][Bta][AcLys″]-NH2
modifications: staple 1-4, 4-11; also: -CH=CH- in each staple reduced to -CH2-CH2-
Consider B9, for which, in the experiment with B-cat-Halo [3], the “NanoBRET Abs IC50” value stood at 27.6 µM.

B10: I-1772 (peptide)
peptide: Ac-[αAllylPro]D[hLeu(5-Me)][B5(5)]D[TfeGA]AAFL[PyrS2″][3Thi][Bta]Q-NH2
modifications: staple 1-4, 4-11
In the case of B10, the “NanoBRET Abs IC50” value in the experiment with B-cat-Halo [2] came out at 6.8 µM.

B11: I-1783 (peptide)
peptide: Ac-[αAllylPro]D[tBuAla][B5(19)]DYAAF[hSer][PyrS2][3Thi][Bta]Q-NH2
modifications: staple 1-4, 4-11
On to B11, for which, in the experiment with B-cat-Halo [2], the “NanoBRET Abs IC50” value is greater than 20 µM.

B12: I-1773 (peptide)
peptide: Ac-[αAllylPro]D[tBuAla][B5(5)]D[TfeGA]AAF[tBuAla][PyrS2″][3Thi][Bta]Q-NH2
modifications: staple 1-4, 4-11
Regarding B12, the “NanoBRET Abs IC50” value with B-cat-Halo [2] turned out to be 8.6 µM.

B13: I-1796 (peptide)
peptide: Ac-[αAllylPro]D[tBuAla][B5(3)]DHAAFL[PyrS2″][3Thi][Bta]Q-NH2
modifications: staple 1-4, 4-11; not fully specified; printed as Ac-PL3-Asp-Npg-B5-Asp-His-Ala-Ala-Phe-Leu-PyrS2-3Thi-BztA-Gln-NH2
Take B13: the “NanoBRET Abs IC50” value with B-cat-Halo [2] was greater than 20 µM.

B14: I-1785 (peptide)
peptide: Ac-[αAllylPro]D[tBuAla][B5(19)]D[hTyr]AAFN[PyrS2][3Thi][Bta]Q-NH2
modifications: staple 1-4, 4-11
As for B14, the “NanoBRET Abs IC50” value with B-cat-Halo [2] turned out to be 42.3 µM.

(Values after patent publication US20240116985A1 (published 2024).)
